From patent US20160024155A1 (published 2016)
Read-outs that look alike come from different tables or passages of the source.

How the values were obtained:
[1] = biological target: T1, A/South Carolina/1/1918 (H1N1) hemagglutinin ectodomain (Influenza A virus A/South …)
[2] = biological target: T1, A/South Carolina/1/1918 (H1N1) …; remark: listed apart in the source
[3] = biological target: T1, A/South Carolina/1/1918 (H1N1) …; remark: listed apart in the source
[4] = biological target: T1, A/South Carolina/1/1918 (H1N1) …; remark: listed apart in the source

| Binder | Kd [1] [nM] | Kd [2] [nM] | fold increase in binding affinity relative to HB36 [3] [fold] | Kd [4] [nM] | fold increase in binding affinity relative to original design (HB36) [4] [fold] |
| --- | --- | --- | --- | --- | --- |
| HB80.1 (Met26Thr, Asn36Lys) (designed binder) MASTRGSGRPWDFSENLAFELALAFTNKDTPDRWAKVAQYVSGRTPEEVKKHYEILVEDIKYIESGKVPFPNYRTTGGNMKTDEKRFRNLKIRLE | 7.5 | 7.5 |  |  |  |
| HB36.1 (Asp47Ser) (designed binder) MSNAMDGQQLNRLLLEWIGAWDPFGLGKDAYDVEAEAVLQAVYETESAFDLAMRIMWIYAFAFNRPIPFPHAQKLARRLLELKQAASSPLPLE | 5 |  | ~40 | 2 to 5 | > 10 |
